Data from the DeepSol protein solubility set.

Assay: soluble on expression in E. coli; label from the status in PepcDB or PDB records

Row | Sequence | soluble on expression in E. coli
1 | PLYLGLMSGTSIDGIDAALVRINANPITHCELIAAQTSAWDPNLRTTLLELSQGQNTASLDQLGWLDAQVGLAFATAANTLIAKTGIKHTQIRAIGSHGQTIRHRPHGDLPFTWQLGDAHRIAELTGITTVADFRRRDVAAGGQGAPLMPAFHLAILGSANENRAVLNLGGIANLTLIPMTGPVLGFDTGPANALLDSWYQRHHHETFDQSGNFAASGKINQKLLACLLDDPWFTLPPPKSTGREQFHLDWMTKQLEPTPPSPADVQATLLELTAVTVADALLRQQPKTTRLLICGGGAHNPVLMARLATHLPNVTVESIQTYGLNPDYLEAMGFAWLAAQTLDGQPSNLPSVTGARGLRLLGAIHPA | not soluble
2 | MASQQQTVREWSGINTFAPATQTKLLELLGNLKQEDVNSLTILVMGKGGVGKSSTVNSIIGERVVSISPFQSEGPRPVMVSRSRAGFTLNIIDTPGLIEGGYINDMALNIIKSFLLDKTIDVLLYVDRLDAYRVDNLDKLVAKAITDSFGKGIWNKAIVALTHAQFSPPDGLPYDEFFSKRSEALLQVVRSGASLKKDAQASDIPVVLIENSGRCNKNDSDEKVLPNGIAWIPHLVQTITEVALNKSESIFVDKNLIDKLAAADHHHHHH | soluble
3 | MSLAVEAVIWDFGGVFTTSPFEAFRRYETERGLPKDFIRTVNATDPDANAWARFERAEIDAAAFDGLFRQEALRLGHDVRGADVLPLLYGDLRPSVMAALKTCKAQFKVGCITNNVPTGHGPGMAQSAEKALAVGEIMALFDAVIESSKAGVRKPDPRIYQMMCELLGVAPEACIYLDDLGINCKPAAALGMTAIKVSDERQLLDDLAKATGLAFEGHHHHHH | soluble
4 | MGDEDDDESCAVELRITEANLTGHEEKVSVENFELLKVLGTGAYGKVFLVRKAGGHDAGKLYAMKVLRKAALVQRAKTQEHTRTERSVLELVRQAPFLVTLHYAFQTDAKLHLILDYVSGGEMFTHLYQRQYFKEAEVRVYGGEIVLALEHLHKLGIIYRDLKLENVLLDSEGHIVLTDFGLSKEFLTEEKERTFSFCGTIEYMAPEIIRSKTGHGKAVDWWSLGILLFELLTGASPFTLEGERNTQAEVSRRILKCSPPFPPRIGPVAQDLLQRLLCKDPKKRLGAGPQGAQEVRNHPFFQGLDWVALAARKIPAPFRPQIRSELDVGNFAEEFTRLEPVYSPPGSPPPGDPRIFQGYSFVAPSILFDHNNAVMTDGLEAPGAGDRPGRAAVARSAMMQYELDLREPALGQGSFSVCRRCRQRQSGQEFAVKILSRRLEANTQREVAALRLCQSHPNVVNLHEVHHDQPHTYLVLELLRGGELLEHIRKKRHFSESEASQILRSLVSAVSFMHEEAGVVHRDLKPENILYADDTPGAPVKIIDFGFARLRPQSPGVPMQTPCFTLQYAAPELLAQQGYDESCDLWSLGVILYMMLSGQVPFQGASGQGGQSQAAEIMCKIREGRFSLDGEAWQGVSEEAKELVRGLLTVDPAKRLKLEGLRGSSWLQDGSARSSPPLRTPDVLESSGPAVRSGLNATFMAFNRGKREGFFLKSVENAPLAKRRKQKLRSATASRRGSPAPANPGRAPVAAKGAPRRANGPLPPS | soluble
5 | KPGFQLGVTVDYEIGKHWMLMSGLSWLQNRSTMKMMDHMVTYFPKTEIKMNNLILPLKMGYNIRVSDKLSLIPSVGVYASYGFGAGNCSLDVIHQEGDNITTEPAKWKPLDGFSYKAGEPNNSGNLQAFRRWDYGGIVGMKAVIADHYTISFDYRVGIKKIQAQNGLRNSTFQFSVGYRF | not soluble
6 | MGSDKIHHHHHHMAKKLFDYQLDETVDGYFLLKDSEVRIAKNGKKFLAINFQDTSGEISGKFWDASDTDVENFQAGRIVHLKGKRENYQGNPQIKIQQMRLTHSGEPQEVQQFVEHAPLKTDTMADEINQFVFEITEPNWNRIVRHMLTTFHDRFFSYPAAKKNHHAFAGGLAYHTLSILRLAKAVADQYPHVNRALLYAGAILHDMGKTIEMSGPVSTTYTLAGNLVGHIVLIDEQIVETCQQLKIDEQSESVLVLRHTILAHHGLLEYGSPVRPHIMEAEILHDLDELDASIQMMQTSLGHAEPGTYTERIFAMDGRNFYRPTGDQTKGELPDEQN | not soluble
7 | MTPAIDAHVRLDTHPTHPSAVQAHLTGTQARVASMALEAAGWSAAATGVLVLARIDHEEPYWAADAAQHLTAAGITVEITPRLQEAIDEEWTWPNYPMTWCTRSEIREVSNQAQKIHDDIRNGHLLIHAHAHDGHTTVAVGTYLHPGGKSVYLHGEDHLRQVADTFDSPAEALVAFEKVHAAEMRPGPAPLTDTERAAIAARSVFDATTAKPEPPRREPEAVPVYLADAGDHDALLDSFLDTHGEFEKWRTWSDETTHAIHESQTLRIERVHETQARETAWTVAAYETPVSDRMWHLTATDATPAPVLLNLLNHLADGDGWDTVIGVPVGEKTVTTATQPLTEAGWKHTLTGHGIRWTSPDGQASVRFDPLTAQAPQNPATWTIWAGPGPDRPTWAITASSHTPSSLLADLSESLAHETGTRQPRPGREHRTRLAASAPAIPAVTSDRPASRSRLEHHHHHH | soluble
8 | MSLKTITFFKRVLASAALVSVCGFACATNNGKQFIHNDTMEGGKLVCREIYAMNDAASGILNPVKMYKYSYDTDQQKTVKSTYAWNIFKNTWETESRTVISRYETETSVEYSVWNKEKGSFDLSKKYIYITDNNNQLIAQYAYKMNSRTNQWILEKDALTPIYENIYATTREGHHHHHH | soluble
9 | MVMKLIKRSLLLLGAVLLITLPAYSQNDDIFEDDIYTSRKEIRKQNQVKDWQNQEDGYGDDTEYTVASDRDIDAYNRRDGQSYDGKKLSKDKKRDSTRSSVPGRYSRRLARFYKPNTIVISGADNVYVTDDGEYFVYGDEYYDDASSVNIYINSPWCDPFPYTSWYPSFSGWYNYTWNYPWFYYGSHIGWGGYYPGYNWYWSYYYDPFYNPYGIGMGWGYPYGWGSYYGWGGYPGVIHHYHHYPKKTYSNGQHSGAYYSYGRPNRIKGGTSGAKLGTGRYDRIQNSSSQKNKFGLQSNKPNNNLQNVKSGRTGRANRDRNIETVTPNNGQKQNRPVFQQNQSGNDRPTGRNIRSERQGENNDRTFSTPSRSNSNGGFSTPSRSSSGSMSGGGGRSGRGRN | not soluble
10 | MGDSILSQAEIDALLNGDSDTKDEPTPGIASDSDIRPYDPNTQRRVVRERLQALEIINERFARQFRMGLFNLLRRSPDITVGAIRIQPYHEFARNLPVPTNLNLIHLKPLRGTGLVVFSPSLVFIAVDNLFGGDGRFPTKVEGREFTHTEQRVINRMLKLALEGYSDAWKAINPLEVEYVRSEMQVKFTNITTSPNDIVVNTPFHVEIGNLTGEFNICLPFSMIEPLRELLVNPPLENSRHEDQNWRDNLVRQVQHSELELVANFADIPLRLSQILKLKPGDVLPIEKPDRIIAHVDGVPVLTSQYGTVNGQYALRVEHLINPILNSLNEEQPK | not soluble
11 | GMEPLKVEKFATANRGNGLRAVTPLRPGELLFRSDPLAYTVCKGSRGVVCDRCLLGKEKLMRCSQCRVAKYCSAKCQKKAWPDHKRECKCLKSCKPRYPPDSVRLLGRVVFKLMDGAPSESEKLYSFYDLESNINKLTEDRKEGLRQLVMTFQHFMREEIQDASQLPPAFDLFEAFAKVICNSFTICNAEMQEVGVGLYPSISLLNHSCDPNCSIVFNGPHLLLRAVRDIEVGEELTICYLDMLMTSEERRKQLRDQYCFECDCFRCQTQDKDADMLTGDEQVWKEVQESLKKIEELKAHWKWEQVLAMCQAIISSNSERLPDINIYQLKVLDCAMDACINLGLLEEALFYGTRTMEPYRIFFPGSHPVRGVQVMKVGKLQLHQGMFPQAMKNLRLAFDIMRVTHGREHSLIEDLILLLEECDANIRAS | soluble
12 | MGSDKIHHHHHHMTDVTQGRIPHAVYIDPGLPEYRDNPLIASLPPIFDTKQVITKLRLKPLYDSAERNLDGRLRVHAIARLLNRFFQPLSHHLELEQKISLILRQGYLGRNPEQGSYHLHLQNGFKRIQEEDLDAFVFDQARSSANSLSLFGCSGCGKSVTINRILSVYEQAIFHPEHNITQLTYLKIECPVDGDLDELCLSFFNEVDRVLHTQYSTSHGRKKLGTKRLMASMCQIANLHALGVLIIDEVQNLNEAKSGGAEKMHNFFVSLVNTIGVPVIQVGTHRARKFFQRTFRAARRITGFGSLLWDRLPNDHQWRQLLKLLWQYQWLRSAEPINDELVGTMYDLTQGVMDIVVKLYVLAQVRAIVTGMERITSELLKQVYHDEFKPVHPMLAALRSNNPGLLEQYDDLLMPEIEARMLSMVSSLEQADTYVDRPEISTDKSKKLLVLLSQMDIPEDIAIPLVDRVISRHPELSVAALMHKVTEYTADVTAEPPKINRIKRTQWLELPTNDLRYLYASSDKNNVYQLFKNQGLIYDLKSVSNRTG | not soluble
